Assays:
[1] = biological target: PGCC(95-104) epitope peptide (Ac-…-NH2), pigeon cytochrome C (pigeon); assay: ELISA, coated PGCC(95-104) peptide, control mouse serum, anti-mouse IgG1 or IgG2a detection
[2] = biological target: HIV gp160(843-855) peptide (HIV); assay: ELISA, coated HIV gp160(843-855) peptide, control mouse serum, anti-mouse IgG1 or IgG2a detection

| Substance | ELISA absorbance at 450 nm, serum dilution 1:20 (absorbance (450 nm)) [1] | ELISA absorbance at 450 nm, serum dilution 1:60 (absorbance (450 nm)) [1] | ELISA absorbance at 450 nm, serum dilution 1:180 (absorbance (450 nm)) [1] | ELISA absorbance at 450 nm, serum dilution 1:540 (absorbance (450 nm)) [1] | ELISA absorbance at 450 nm, serum dilution 1:1620 (absorbance (450 nm)) [1] | ELISA absorbance at 450 nm, serum dilution 1:4860 (absorbance (450 nm)) [1] | ELISA absorbance at 450 nm, serum dilution 1:20 (absorbance (450 nm)) [2] | ELISA absorbance at 450 nm, serum dilution 1:60 (absorbance (450 nm)) [2] | ELISA absorbance at 450 nm, serum dilution 1:180 (absorbance (450 nm)) [2] | ELISA absorbance at 450 nm, serum dilution 1:540 (absorbance (450 nm)) [2] |
| --- | --- | --- | --- | --- | --- | --- | --- | --- | --- | --- |
| Serum of mice given no immunogen (control of Table 22.1) (antibody) | 0.105 | 0.72 | 0.049 | 0.036 | – | – | – | – | – | – |
| Serum of mice given no immunogen (control of Table 22.2) (antibody) | 0.042 | 0.004 | -0.003 | 0.007 | 0.006 | 0.005 | – | – | – | – |
| Serum of mice given no immunogen (control of Table 22.3) (antibody) | – | – | – | – | – | – | 0.084 | 0.045 | 0.004 | -0.003 |

— patent publication US20080305122A1
